Experimental findings from article PMC13069688 are described below.

Data set [1] concerns LacI-Halo WT (Escherichia coli). Put plainly: PBM real-time kinetics (kd/ka). The note with it: PBM: imaging buffer (Na+ + K+ about 30 mM; composition and pH not in the material), EMSA: 1 nM DNA, 0-500 nM LacI (monomer), 1x imaging buffer with 20, 100 or …. (A gel shift assay detects complexes by their altered migration in electrophoresis.)
The test system of data set [2] is Q55N-LacI-Halo Q55N (Escherichia coli). Kind of data set: PBM real-time kinetics (kd/ka). The following applies: PBM: imaging buffer (Na+ + K+ about 30 mM; composition and pH not in the material), EMSA: 1 nM DNA, 0-500 nM LacI (monomer), 1x imaging buffer with 20, 100 or ….
In data set [3] the test system is V52A-LacI-Halo V52A (Escherichia coli). Kind of data set: PBM real-time kinetics (kd/ka). The note with it: PBM: imaging buffer (Na+ + K+ about 30 mM; composition and pH not in the material), EMSA: 1 nM DNA, 0-500 nM LacI (monomer), 1x imaging buffer with 20, 100 or ….
In data set [4] the test system is LacI-Halo WT (Escherichia coli). Kind of data set: EMSA. The following applies: NaCl titration; Methods list 20, 100, 200 mM; Kd values only in figure; PBM: imaging buffer (Na+ + K+ about 30 mM; composition and pH not in the material); EMSA: 1 nM DNA, 0-500 nM LacI (monomer), 1x imaging buffer with 20, 100 or ….
In data set [5] the test system is Q55N-LacI-Halo Q55N (Escherichia coli). Put plainly: EMSA. The following applies: NaCl titration; Methods list 20, 100, 200 mM; Kd values only in figure; PBM: imaging buffer (Na+ + K+ about 30 mM; composition and pH not in the material); EMSA: 1 nM DNA, 0-500 nM LacI (monomer), 1x imaging buffer with 20, 100 or ….

As to O1 operator (PBM), the binding signal (KD/WT-KD(Osym)) in data set [1] (relative ka 0.66, kd 8.84 ± 0.12 e-4 s-1) was determined as 6.1; in data set [2] (relative ka 0.35, kd 22.79 ± 0.89 e-4 s-1) it was 28.4; in data set [3] (relative ka 0.72, kd 3.80 ± 0.06 e-4 s-1) it was 2.6.
O2 operator (PBM): the binding signal (KD/WT-KD(Osym)) is 14.1 in data set [1] (relative ka 0.42, kd 13.25 ± 0.35 e-4 s-1); 140 in data set [2] (relative ka 0.12, kd 36.53 ± 3.80 e-4 s-1); 4.1 in data set [3] (relative ka 0.58, kd 4.84 ± 0.10 e-4 s-1).
As for Osym 60 bp EMSA probe, the figures for the binding signal (fold KD increase, 50 to 200 mM NaCl) in data set [4] and in data set [5] were 10 and 2, respectively.
As to Osym operator (PBM), the binding signal (KD/WT-KD(Osym)) in data set [1] (reference, kd 2.14 ± 0.03 e-4 s-1) is 1; in data set [2] (relative ka 0.89, kd 7.39 ± 0.13 e-4 s-1), 3.6; in data set [3] (relative ka 1.03, kd 0.89 ± 0.02 e-4 s-1), 0.4.
